Experimental data reported in patent publication US10793631B2, “Human PAC1 antibodies” (AMGEN INC., priority 2013, dated 2020).

What was measured:
Assay type in all cases: cell-based
PAC1 = target: T1, PAC1 (Homo sapiens, UniProt P41586); test: Activity and selectivity of PAC1 agonists on PAC1
T1 sequence (P41586 21-468): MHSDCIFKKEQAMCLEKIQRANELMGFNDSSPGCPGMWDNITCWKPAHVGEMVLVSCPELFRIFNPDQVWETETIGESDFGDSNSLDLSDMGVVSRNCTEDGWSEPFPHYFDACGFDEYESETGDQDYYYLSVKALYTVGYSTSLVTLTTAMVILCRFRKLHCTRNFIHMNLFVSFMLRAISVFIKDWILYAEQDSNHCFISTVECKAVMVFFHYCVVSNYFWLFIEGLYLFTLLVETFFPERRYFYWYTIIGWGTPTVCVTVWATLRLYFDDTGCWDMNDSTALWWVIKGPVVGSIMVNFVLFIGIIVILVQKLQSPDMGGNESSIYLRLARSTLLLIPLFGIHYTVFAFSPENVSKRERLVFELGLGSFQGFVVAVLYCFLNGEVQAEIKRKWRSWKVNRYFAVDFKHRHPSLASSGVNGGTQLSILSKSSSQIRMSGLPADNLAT

VPAC1 = target: T2, VPAC1 (Homo sapiens, UniProt P32241); test: Activity and selectivity of PAC1 agonists on VPAC1; details: receptor agonist on VPAC1
T2 sequence (P32241 31-457): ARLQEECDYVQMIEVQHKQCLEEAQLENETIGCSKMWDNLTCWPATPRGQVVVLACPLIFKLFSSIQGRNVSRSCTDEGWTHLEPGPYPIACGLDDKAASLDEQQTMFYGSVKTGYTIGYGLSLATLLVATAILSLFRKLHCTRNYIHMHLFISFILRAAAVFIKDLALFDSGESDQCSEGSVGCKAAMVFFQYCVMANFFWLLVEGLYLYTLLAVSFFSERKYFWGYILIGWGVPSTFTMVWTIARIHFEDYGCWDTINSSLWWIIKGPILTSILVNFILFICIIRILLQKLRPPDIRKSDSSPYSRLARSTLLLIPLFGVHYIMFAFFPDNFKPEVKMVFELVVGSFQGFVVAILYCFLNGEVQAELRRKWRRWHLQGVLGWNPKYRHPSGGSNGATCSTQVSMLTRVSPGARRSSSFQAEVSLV

VPAC2 = target: T3, VPAC2 (Homo sapiens, UniProt P41587); test: Activity and selectivity of PAC1 agonists on VPAC2; details: receptor agonist on VPAC2
T3 sequence (P41587 24-438): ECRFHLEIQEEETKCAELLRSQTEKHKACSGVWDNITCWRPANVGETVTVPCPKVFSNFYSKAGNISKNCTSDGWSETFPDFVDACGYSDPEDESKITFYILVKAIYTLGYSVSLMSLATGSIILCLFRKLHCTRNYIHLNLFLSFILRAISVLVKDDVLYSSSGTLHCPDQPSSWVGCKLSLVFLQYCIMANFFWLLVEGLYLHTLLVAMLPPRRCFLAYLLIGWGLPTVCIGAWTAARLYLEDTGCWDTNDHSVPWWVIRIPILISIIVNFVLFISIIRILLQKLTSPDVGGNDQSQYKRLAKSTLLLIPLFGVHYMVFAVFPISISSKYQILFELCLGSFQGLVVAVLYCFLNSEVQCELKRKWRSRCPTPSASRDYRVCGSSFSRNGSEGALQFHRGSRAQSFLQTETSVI

## Maxadilan: 65 amino acid peptide originally isolated from the sand-fly; PAC1-selective agonist
PAC1; PAC1 versus VPAC1 and VPAC2
  agonist activity and selectivity: highly-selective for PAC1 versus VPAC1 and VPAC2
PAC1; receptor agonist on PAC1
  EC50: 0.06 nM
VPAC1
  EC50: > 1000 nM
VPAC2
  EC50: > 1000 nM
